Where two headings read alike, the source gives them in different places.
How the values were obtained:
[1] = molecular target: T1, GPR133 (ADGRD1) C-terminal fragment (CTF) with C-terminal TwinStrep tag, from C-terminally tagged wild-type … (human); experiment: pull-down
T1 chain: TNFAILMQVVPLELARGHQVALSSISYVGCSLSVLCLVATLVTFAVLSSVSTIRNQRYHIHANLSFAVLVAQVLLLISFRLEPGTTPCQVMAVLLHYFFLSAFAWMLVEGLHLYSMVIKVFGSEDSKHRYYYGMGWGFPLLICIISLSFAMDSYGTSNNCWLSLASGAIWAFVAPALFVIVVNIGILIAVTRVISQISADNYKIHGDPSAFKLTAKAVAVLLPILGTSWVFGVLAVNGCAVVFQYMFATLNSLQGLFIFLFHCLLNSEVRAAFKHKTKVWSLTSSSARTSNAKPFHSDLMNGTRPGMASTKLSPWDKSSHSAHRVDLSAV

[2] = molecular target: T1, GPR133 (ADGRD1) C-terminal fragment …; experiment: pull-down

B1: GPR133 (ADGRD1) N-terminal fragment (NTF), from C-terminally TwinStrep-tagged wild-type GPR133 (domain or fragment, human)
chain: VYSRSQDHPGFQVLASASHYWPLENVDGIHELQDTTGDIVEGKVNKGIYLKEEKGVTLLYYGRYNSSCISKPEQCGPEGVTFSFFWKTQGEQSRPIPSAYGGQVISNGFKVCSSGGRGSVELYTRDNSMTWEASFSPPGPYWTHVLFTWKSKEGLKVYVNGTLSTSDPSGKVSRDYGESNVNLVIGSEQDQAKCYENGAFDEFIIWERALTPDEIAMYFTAAIGKHALLSSTLPSLFMTSTASPVMPTDAYHPIITNLTEERKTFQSPGVILSYLQNVSLSLPSKSLSEQTALNLTKTFLKAVGEILLLPGWIALSEDSAVVLSLIDTIDTVMGHVSSNLHGSTPQVTVEGSSAMAEFSVAKILPKTVNSSHYRFPAHGQSFIQIPHEAFHRHAWSTVVGLLYHSMHYYLNNIWPAHTKIAEAMHHQDCLLFATSHLISLEVSPPPTLSQNLSGSPLITVHLKHRLTRKQHSEATNSSNRVFVYCAFLDFSSGEGVWSNHGCALTRGNLTYSVCRCTHL
modifications: glycosylated (nine N-linked glycosylation sites predicted within the NTF; positions not given)
For B1, the “NTF/CTF ratio in the elution (densitometry)” value [1] was 1 and the “NTF/CTF ratio in the elution (densitometry)” value [2] was 0.17.
